The record followed here is article PMC11274412, “Characterization of Receptor Binding Affinity for Vascular Endothelial Growth Factor with Interferometric Imaging Sensor” (Biosensors, 2024).

Experiment [1] has as its target T1, Aflibercept (Eylea).
T1 chain: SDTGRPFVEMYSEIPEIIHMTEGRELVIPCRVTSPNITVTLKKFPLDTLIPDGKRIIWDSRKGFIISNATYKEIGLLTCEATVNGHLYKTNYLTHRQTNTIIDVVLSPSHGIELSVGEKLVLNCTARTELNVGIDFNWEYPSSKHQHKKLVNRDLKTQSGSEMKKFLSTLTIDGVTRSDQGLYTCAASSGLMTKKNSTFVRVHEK
Nature of the experiment: Interferometric Reflectance Imaging Sensor (IRIS); equilibrium IRIS signal on drug spots against VEGF concentration, fitted with the Langmuir-Freundlich isotherm. To be noted: both partners purified.

Experiment [2] deals with T1, Aflibercept (Eylea). Nature of the experiment: Interferometric Reflectance Imaging Sensor (IRIS); equilibrium IRIS signal on drug spots against VEGF concentration, fitted with the Langmuir isotherm. The settings on record: both partners purified.

B1: Recombinant human VEGF165 protein (ligand)
chain: APMAEGGGQNHHEVVKFMDVYQRSYCHPIETLVDIFQEYPDEIEYIFKPSCVPLMRCGGCCNDEGLECVPTEESNITMQIMRIKPHQGQHIGEMSFLQHNKCECRPKKDRARQENPCGPCSERRKHLFVQDPQTCKCSCKNTDSRCKARQLELNERTCRCDKPRR
modifications: disulfide-linked homodimer; N-glycosylated (HEK293 expressed); limits are the conventional mature VEGF165 (191-aa precursor minus 26-aa signal) / human IgG1 Fc (C-terminal, dimerizing …)
As a reminder, the Kd is the free concentration of one partner at which half of the binding sites on the other are occupied at equilibrium, for simple one-to-one binding. In the experiment with Aflibercept (Eylea) [1], B1 displayed a Ka of 1.5e+08 M⁻¹ and a dissociation constant (Kd) of 66 nM. In addition, in the experiment with Aflibercept (Eylea) [2], the Ka worked out at 1.05e+09 M⁻¹ and binding was characterised by a dissociation constant (Kd) of 17.5 nM.
